Residue numbers refer to the chain shown, from its start.
T1: mouse FcγRIII extracellular domain, C-terminal His tag (mouse, UniProt P08508 31-215)
T1 construct: also called mFcγRIII; mFcgRIII
T1 chain: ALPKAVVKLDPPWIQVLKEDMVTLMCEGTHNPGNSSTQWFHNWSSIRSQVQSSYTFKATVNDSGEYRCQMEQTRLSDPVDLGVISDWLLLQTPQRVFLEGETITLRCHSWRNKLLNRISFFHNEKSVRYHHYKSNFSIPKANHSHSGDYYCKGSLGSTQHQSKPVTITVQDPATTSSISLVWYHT

T2: mouse FcγRII extracellular domain, C-terminal His tag (mouse, UniProt P08101 30-210)
T2 construct: also called mFcγRII; mFcgRII
T2 sequence: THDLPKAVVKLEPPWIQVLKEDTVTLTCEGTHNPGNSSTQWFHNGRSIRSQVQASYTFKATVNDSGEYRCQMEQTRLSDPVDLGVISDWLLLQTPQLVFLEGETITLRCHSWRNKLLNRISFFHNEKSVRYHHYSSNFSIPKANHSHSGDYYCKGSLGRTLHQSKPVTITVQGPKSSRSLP

B1: H237-MB780/MRAL-k0 (antibody, mouse IgG1, kappa)
heavy: QVQLQESGPGLVKPSETLSLTCAVSGHSISHDHAWSWVRQPPGEGLEWIGFISYSGITNYNPSLQGRVTISRDNSKNTLYLQMNSLRAEDTAVYYCARSLARTTAMDYWGEGTLVTVSSAKTTPPSVYPLAPGSAAQTNSMVTLGCLVKGYFPEPVTVTWNSGSLSSGVHTFPAVLQSDLYTLSSSVTVPSSTWPSETVTCNVAHPASSTKVDKKIVPRDCGCKPCICEPNEVELVFIFPPKPKDVLTITLTPKVTCVVVDISKDDPEVQFSWFVDDVEVHTAQTQPREEQFNSTFRSVSELPIMHQDWLNGKEFKCRVNSAGFPAPIEKTISKTKGRPKAPQVYTIPPPKEQMAKDKVSLTCMITDFFPEDITVEWQWNGQPAENYKNTQPIMDTDGSYFVYSKLNVQKSNWEAGNTFTCSVLHEGLHNHHTEKSLSHSPGK
light: not shown
notes: copies: 2 + 2
B2: H237-MB787/MRAL-k0 (antibody, mouse IgG1, kappa)
heavy: B1 heavy with Q291L, N320D, A322D, G323A
light: not shown
notes: copies: 2 + 2
B3: H237-MB813/MRAL-k0 (antibody, mouse IgG1, kappa)
heavy: B1 heavy with N320D, G323A, P327F
light: not shown
notes: copies: 2 + 2
B4: H237-MB824/MRAL-k0 (antibody, mouse IgG1, kappa)
heavy: B1 heavy with A322D, G323A, P327Y
light: not shown
notes: copies: 2 + 2
B5: H237-MB814/MRAL-k0 (antibody, mouse IgG1, kappa)
heavy: B1 heavy with N320D, G323A, P327Y
light: not shown
notes: copies: 2 + 2
B6: H237-MB784/MRAL-k0 (antibody, mouse IgG1, kappa)
heavy: B1 heavy with Q291L, G323A, K330R
light: not shown
notes: copies: 2 + 2
B7: H237-MB808/MRAL-k0 (antibody, mouse IgG1, kappa)
heavy: B1 heavy with Q291L
light: not shown
notes: copies: 2 + 2
B8: H237-MB816/MRAL-k0 (antibody, mouse IgG1, kappa)
heavy: B1 heavy with N320M, A322D, G323A
light: not shown
notes: copies: 2 + 2
B9: H237-MB825/MRAL-k0 (antibody, mouse IgG1, kappa)
heavy: B1 heavy with A322D, G323A, E329Y
light: not shown
notes: copies: 2 + 2
B10: H237-MB823/MRAL-k0 (antibody, mouse IgG1, kappa)
heavy: B1 heavy with A322D, G323A, P327F
light: not shown
notes: copies: 2 + 2
B11: H237-MB791/MRAL-k0 (antibody, mouse IgG1, kappa)
heavy: B1 heavy with Q291L, N320D, A322D, G323A, K330R
light: not shown
notes: copies: 2 + 2
B12: H237-MB815/MRAL-k0 (antibody, mouse IgG1, kappa)
heavy: B1 heavy with N320D, G323A, E329Y
light: not shown
notes: copies: 2 + 2
B13: H237-MB817/MRAL-k0 (antibody, mouse IgG1, kappa)
heavy: B1 heavy with N320M
light: not shown
notes: copies: 2 + 2
B14: H237-MB807/MRAL-k0 (antibody, mouse IgG1, kappa)
heavy: B1 heavy with Q291L, N320M, G323A
light: not shown
notes: copies: 2 + 2
B15: H237-MB810/MRAL-k0 (antibody, mouse IgG1, kappa)
heavy: B1 heavy with Q291L, G323A, P327Y
light: not shown
notes: copies: 2 + 2
B16: H237-MB822/MRAL-k0 (antibody, mouse IgG1, kappa)
heavy: B1 heavy with A322D
light: not shown
notes: copies: 2 + 2
B17: H237-MB783/MRAL-k0 (antibody, mouse IgG1, kappa)
heavy: B1 heavy with Q291L, A322D, G323A
light: not shown
notes: copies: 2 + 2
B18: H237-MB821/MRAL-k0 (antibody, mouse IgG1, kappa)
heavy: B1 heavy with N320M, G323A, K330R
light: not shown
notes: copies: 2 + 2
B19: H237-MB782/MRAL-k0 (antibody, mouse IgG1, kappa)
heavy: B1 heavy with Q291L, N320D, G323A
light: not shown
notes: copies: 2 + 2
B20: H237-MB812/MRAL-k0 (antibody, mouse IgG1, kappa)
heavy: B1 heavy with N320D
light: not shown
notes: copies: 2 + 2
B21: H237-MB788/MRAL-k0 (antibody, mouse IgG1, kappa)
heavy: B1 heavy with Q291L, N320D, G323A, K330R
light: not shown
notes: copies: 2 + 2
B22: H237-MB819/MRAL-k0 (antibody, mouse IgG1, kappa)
heavy: B1 heavy with N320M, G323A, P327Y
light: not shown
notes: copies: 2 + 2
B23: H237-MB809/MRAL-k0 (antibody, mouse IgG1, kappa)
heavy: B1 heavy with Q291L, G323A, P327F
light: not shown
notes: copies: 2 + 2
B24: H237-MB820/MRAL-k0 (antibody, mouse IgG1, kappa)
heavy: B1 heavy with N320M, G323A, E329Y
light: not shown
notes: copies: 2 + 2
B25: H237-MB790/MRAL-k0 (antibody, mouse IgG1, kappa)
heavy: B1 heavy with N320D, A322D, G323A, K330R
light: not shown
notes: copies: 2 + 2
B26: H237-MB785/MRAL-k0 (antibody, mouse IgG1, kappa)
heavy: B1 heavy with N320D, A322D, G323A
light: not shown
notes: copies: 2 + 2
B27: H237-MB786/MRAL-k0 (antibody, mouse IgG1, kappa)
heavy: B1 heavy with A322D, G323A, K330R
light: not shown
notes: copies: 2 + 2
B28: H237-MB789/MRAL-k0 (antibody, mouse IgG1, kappa)
heavy: B1 heavy with Q291L, A322D, G323A, K330R
light: not shown
notes: copies: 2 + 2
B29: H237-MB811/MRAL-k0 (antibody, mouse IgG1, kappa)
heavy: B1 heavy with Q291L, G323A, E329Y
light: not shown
notes: copies: 2 + 2
B30: H237-MB818/MRAL-k0 (antibody, mouse IgG1, kappa)
heavy: B1 heavy with N320M, G323A, P327F
light: not shown
notes: copies: 2 + 2

Biological target: T1, mouse FcγRIII extracellular domain, …
Experiment: SPR (Biacore T200), antibody captured on Protein L, mFcγR analyte
Experimental: (§1) Each altered antibody was analyzed for its interaction with each Fcγ receptor prepared above using Biacore T100 (GE Healthcare Japan Corp.), Biacore T200 (GE Healthcare Japan Corp.), Biacore A100, or Biacore 4000. The running buffer used was HBS-EP+ (GE Healthcare Japan Corp.). The assay temperature was set to 25° C. The sensor chips used were chips prepared by immobilizing Protein L (ACTIGEN or BioVision) onto Series S Sensor Chip CM5 (GE Healthcare Japan Corp.) or Series S Sensor Chip CM4 (GE Healthcare Japan Corp.) by the amine coupling method.
(§2) In order to calculate the KD value of each altered antibody for FcγR, kinetic analysis was conducted according to the following method: first, the antibody of interest was captured onto any of these chips and allowed to interact with mFcγR diluted with a running buffer. For the obtained sensorgram, the assay results were globally fit into the 1:1 Langmuir binding model using Biacore Evaluation Software to calculate an association rate constant ka (L/mol/s) and a dissociation rate constant kd (1/s). From these values, the dissociation constant KD (mol/L) was calculated.

| Kd [nM] | relative mFcγRIII-binding activity (mIgG1 = 1) | Binder |
| --- | --- | --- |
| 716 | 0.4 fold vs H237-mIgG1/MRAL-k0 | B1 |
| 295 | 1 fold vs H237-mIgG1/MRAL-k0 | B2 |
| 951 | 0.3 fold vs H237-mIgG1/MRAL-k0 | B3 |
| 500 | 0.6 fold vs H237-mIgG1/MRAL-k0 | B4 |
| 826 | 0.3 fold vs H237-mIgG1/MRAL-k0 | B5 |
| 734 | 0.4 fold vs H237-mIgG1/MRAL-k0 | B6 |
| 359 | 0.8 fold vs H237-mIgG1/MRAL-k0 | B7 |
| 431 | 0.7 fold vs H237-mIgG1/MRAL-k0 | B8 |
| 564 | 0.5 fold vs H237-mIgG1/MRAL-k0 | B9 |
| 575 | 0.5 fold vs H237-mIgG1/MRAL-k0 | B10 |
| 256 | 1.1 fold vs H237-mIgG1/MRAL-k0 | B11 |
| 938 | 0.3 fold vs H237-mIgG1/MRAL-k0 | B12 |
| 539 | 0.5 fold vs H237-mIgG1/MRAL-k0 | B13 |
| 579 | 0.5 fold vs H237-mIgG1/MRAL-k0 | B14 |
| 546 | 0.5 fold vs H237-mIgG1/MRAL-k0 | B15 |
| 304 | 0.9 fold vs H237-mIgG1/MRAL-k0 | B16 |
| 378 | 0.7 fold vs H237-mIgG1/MRAL-k0 | B17 |
| 625 | 0.5 fold vs H237-mIgG1/MRAL-k0 | B18 |
| 567 | 0.5 fold vs H237-mIgG1/MRAL-k0 | B19 |
| 418 | 0.7 fold vs H237-mIgG1/MRAL-k0 | B20 |
| 475 | 0.6 fold vs H237-mIgG1/MRAL-k0 | B21 |
| 872 | 0.3 fold vs H237-mIgG1/MRAL-k0 | B22 |
| 638 | 0.4 fold vs H237-mIgG1/MRAL-k0 | B23 |
| 854 | 0.3 fold vs H237-mIgG1/MRAL-k0 | B24 |
| 402 | 0.7 fold vs H237-mIgG1/MRAL-k0 | B25 |
| 577 | 0.5 fold vs H237-mIgG1/MRAL-k0 | B26 |
| 493 | 0.6 fold vs H237-mIgG1/MRAL-k0 | B27 |
| 343 | 0.8 fold vs H237-mIgG1/MRAL-k0 | B28 |
| 654 | 0.4 fold vs H237-mIgG1/MRAL-k0 | B29 |
| 979 | 0.3 fold vs H237-mIgG1/MRAL-k0 | B30 |

biological target: T2, mouse FcγRII extracellular domain, …; experiment: as above
Experimental: as §1, §2

| Kd [nM] | relative mFcγRII-binding activity (mIgG1 = 1) | Binder |
| --- | --- | --- |
| 10.4 | 20.2 fold vs H237-mIgG1/MRAL-k0 | B1 |
| 5.45 | 38.5 fold vs H237-mIgG1/MRAL-k0 | B2 |
| 12.9 | 16.3 fold vs H237-mIgG1/MRAL-k0 | B3 |
| 7.51 | 28 fold vs H237-mIgG1/MRAL-k0 | B4 |
| 11.7 | 18 fold vs H237-mIgG1/MRAL-k0 | B5 |
| 14.3 | 14.7 fold vs H237-mIgG1/MRAL-k0 | B6 |
| 7.19 | 29.2 fold vs H237-mIgG1/MRAL-k0 | B7 |
| 6.9 | 30.4 fold vs H237-mIgG1/MRAL-k0 | B8 |
| 7.38 | 28.4 fold vs H237-mIgG1/MRAL-k0 | B9 |
| 8.39 | 25 fold vs H237-mIgG1/MRAL-k0 | B10 |
| 5.23 | 40.1 fold vs H237-mIgG1/MRAL-k0 | B11 |
| 12 | 17.6 fold vs H237-mIgG1/MRAL-k0 | B12 |
| 7.38 | 28.5 fold vs H237-mIgG1/MRAL-k0 | B13 |
| 9.58 | 21.9 fold vs H237-mIgG1/MRAL-k0 | B14 |
| 10.1 | 20.8 fold vs H237-mIgG1/MRAL-k0 | B15 |
| 4.8 | 43.8 fold vs H237-mIgG1/MRAL-k0 | B16 |
| 6.85 | 30.6 fold vs H237-mIgG1/MRAL-k0 | B17 |
| 8.6 | 24.4 fold vs H237-mIgG1/MRAL-k0 | B18 |
| 9.88 | 21.3 fold vs H237-mIgG1/MRAL-k0 | B19 |
| 6.28 | 33.4 fold vs H237-mIgG1/MRAL-k0 | B20 |
| 9.38 | 22.4 fold vs H237-mIgG1/MRAL-k0 | B21 |
| 11.6 | 18.1 fold vs H237-mIgG1/MRAL-k0 | B22 |
| 11.1 | 19 fold vs H237-mIgG1/MRAL-k0 | B23 |
| 10.8 | 19.5 fold vs H237-mIgG1/MRAL-k0 | B24 |
| 6.28 | 33.5 fold vs H237-mIgG1/MRAL-k0 | B25 |
| 8.43 | 24.9 fold vs H237-mIgG1/MRAL-k0 | B26 |
| 7.73 | 27.2 fold vs H237-mIgG1/MRAL-k0 | B27 |
| 6.8 | 30.9 fold vs H237-mIgG1/MRAL-k0 | B28 |
| 9.45 | 22.2 fold vs H237-mIgG1/MRAL-k0 | B29 |
| 13.5 | 15.6 fold vs H237-mIgG1/MRAL-k0 | B30 |

Source: patent publication US20150203577A1 (Chugai, published 2015)
